On the set-up of data set [1]: species or system Balb/c mice. Conditions: mouse, in vivo, ip. As for the experimental part:
9 week old female Balb/c mice (InVivos, Singapore) were injected intraperitoneally with 0.5, 1, 2 or 4 mg hDectin1-Fc in groups of 3. Blood was sampled from the tail at time 0, 5, 10, 15, 30 mins and 1, 2, 4, 8 hours thereafter followed by daily sampling with Microvette® ([…], Nümbrecht, Germany) for 20 days. The respective blood samples were allowed to clot and centrifuged at 2000 g and the blood serum collected. The blood serum was diluted accordingly and the concentration of hDectin1-Fc was tested with Human IgG ELISA Antibody Pair Kit and developed with pNPP ELISA Substrate ([…] Technologies, Vancouver, Canada). The plates were read on PLATE reader and the data analysed for hDectin1-Fc pharmacokinetic parameters with open source Microsoft Excel add-in PKSolver (China Pharmaceutical University, Nanjing, China).
The pharmacokinetic parameters of hDectin1-Fc at different doses (4 mg, 2 mg, 1 mg and 0.5 mg) were determined by administering a single bolus intraperitoneal injection and sampling blood serum daily (FIG. 14). The daily concentration over 20 days was measured by ELISA and the results analysed with PKSolver to determine the pharmacokinetic parameters (Table 2). […] The lowest dose of 0.5 mg has a half-life and MRT lower than the 2 mg and 1 mg dose and its peak concentration (Cmax) is at 10 hours instead of 2 hours like the other doses. This observed outcome for the 0.5 mg dose is likely to arise from the slow transfer of hDectin1-Fc from the intraperitoneal space of the mouse into its bloodstream due to the lower concentration gradient and stronger role of excretion over distribution. The duration of the MRT and the half-life is a reflection of the presence of the protective effects of hDectin1-Fc in the body of the mice. The optimal dose with the longest MRT and half-life is approximately 1 mg. The general take away from the pharmacokinetic study are: (i) high doses result in rapid excretion of the drug, (ii) peak concentration occurs at 2 hours (iii) lower doses have a longer half-life and mean residence time appropriate for passive immunization.

A further data set has as its system SC5314 Candida albicans. The experiment in a line: In vitro co-culture CFU assay of human primary immune cells against Candida albicans. Conditions: 1 hr; for fungicidal activity (CFU): absence or presence of hDectin1-Fc; for reduction in CFU: between hDectin1-Fc 0 μg/ml and 1000 µg/ml, 37° C. The data set is classed as cell-based. On the procedure:
Macrophage assay: Human peripheral blood CD14+ monocytes were cultured at 1×10^6 cells/mL in 5 mL of ImmunoCult™-SF Macrophage Differentiation Medium with Human Recombinant M-CSF at 50 ng/ml in a T-25 flask at 37° C. in a 5% CO2 incubator. On Day 4, 2.5 mL of fresh ImmunoCult™-SF Macrophage Differentiation Medium was added to the flask. On Day 6, M1 activation was initiated with the addition of 50 ng/mL IFN-γ. On Day 8, the macrophages were treated with ACCUTASE and scrapped from the flask. The cells were centrifuged and resuspended in RPMI medium with 10% FBS and seeded into Eppendorf 96 well plates at 10^5 cells/well.
NK cell assay: Human Peripheral Blood CD56+NK Cells 1×10^6 cells/mL in 5 mL of ImmunoCult™-XF T Cell Expansion Medium with Human Recombinant IL-2 at 500 IU/ml in a T-25 flask at 37° C. in a 5% CO2 incubator for 7 days. Additional fresh media was added on day 4. The cells were centrifuged and resuspended in RPMI medium with 10% FBS and seeded into Eppendorf 96 well plates at 10^5 cells/well.
Monocyte assay: Human peripheral blood CD14+ Monocytes were cultured at 1×10^6 cells/mL in 5 mL of ImmunoCult™-SF Macrophage Differentiation Medium with Human Recombinant M-CSF at 10 ng/ml in a T-25 flask at 37° C. in a 5% CO2 incubator for 4 days. The cells were centrifuged and resuspended in RPMI medium with 10% FBS and seeded into Eppendorf 96 well plates at 10^5 cells/well.
Neutrophil assay: Human peripheral neutrophils were extracted from Human […] using EasySep™ Direct Human Neutrophil Isolation Kit as per manufacturer's protocol. The isolated neutrophils were centrifuged and resuspended in RPMI medium with 10% FBS and G-CSF and seeded into Eppendorf 96 well plates at 10^5 cells/well.
The co-culture CFU assay involves the addition of 10^5 cells/well of SC5314 Candida albicans cells to wells containing 10^5 cells/well of primary immune cells with final concentration of hDectin1-Fc at […] in a 96 well plate. The assay was incubated for 1 hr at 37° C. in a 5% CO2 atmosphere incubator. Samples were taken from each well at the end of the incubation and diluted accordingly before plating on YPD agar plates. The colonies were counted the following day. Each assay was done thrice and the average taken.
To evaluate the capability of the hDectin1-Fc fusion protein in enhancing immune cell anti-candida function, 10^5 human primary immune cells were co-cultured with 10^5 Candida albicans in a 1 hr long assay incubated at 37° C. with varying concentrations of hDectin1-Fc from […]. The surviving Candida cells were diluted and plated and the colony forming units (CFU) used as a measure of fungicidal activity (FIG. 12). […]

Experimental findings from patent US20230257444A1, “FUSION PROTEIN AND COMBINATIONS THEREOF” (Agency for Science, Technology and Research, priority 2020, published 2023) are described below.

Like-named read-outs stand apart in the source and are kept apart here.

Regarding “hDectin1-Fc: soluble dimeric fusion protein: human Dectin-1 receptor polypeptide (aa 73-247) fused to human IgG1 Fc via hinge; SEQ ID NO: 5”, the Cl/F in data set [1] (0.5 mg) is on record as 0.0066 (μg)/(μg/ml)/h; in data set [1] (1 mg), 0.0163 (μg)/(μg/ml)/h; in data set [1] (2 mg), 0.0095 (μg)/(μg/ml)/h; in data set [1] (4 mg), 0.0314 (μg)/(μg/ml)/h. In addition, the Cmax (usually the maximum level reached in the sampled fluid or tissue) in data set [1] (0.5 mg) is 330 µg/mL; in data set [1] (1 mg), 294 µg/mL; in data set [1] (2 mg) it was 1039 µg/mL. Also, the Tmax – broadly, the time at which the peak concentration occurs – in data set [1] (0.5 mg) is reported as 10 h; in data set [1] (1 mg), 2 h; in data set [1] (2 mg) it was 2 h; in data set [1] (4 mg) it was 2 h. Moreover, the Vz/F in data set [1] (0.5 mg) is 0.9495 (μg)/(μg/ml); in data set [1] (1 mg) it was 3.4254 (μg)/(μg/ml); in data set [1] (2 mg), 2.1489 (μg)/(μg/ml); in data set [1] (4 mg), 3.5008 (μg)/(μg/ml). The t½ – broadly, the time in which the quantity being followed falls by half – in data set [1] (0.5 mg) stood at 100 h; in data set [1] (1 mg), 146 h; in data set [1] (2 mg), 156 h; in data set [1] (4 mg), 77 h. For the same substance, the “fungicidal activity (CFU)” value in the data set on SC5314 Candida albicans (human NK cells) and in the data set on SC5314 Candida albicans (human monocytes) was “did not demonstrate any appreciable fungicidal activity” in each case. The “reduction in CFU” value with SC5314 Candida albicans (human primary macrophages) and with SC5314 Candida albicans (human primary neutrophils) was roughly 50% throughout.
